The record followed here is patent US20190284262A1 (Memorial Sloan Kettering, published 2019).

For test [1], the target named is T1, HLA-A*02:01 on T2 cells alone (no peptide added) (human).
T1 construct: TAP-deficient T2 cells without pulsed peptide; negative control target, and the HLA molecule whose stabilisation by peptides is read in the T2 stabilization assay; also called HLA-A*02 molecule; HLA-A2 molecule
As to the kind of experiment: flow cytometry, phage on T2 cells, no peptide.

The target of test [2] is T2, T2+EW (Homo sapiens, UniProt A*02:01).
T2 construct: on the surface of T2 cells; irrelevant control peptide; also called EW peptide/HLA-A*02:01 complex on T2 cells; T2 pulsed with EW peptide
Put plainly: flow cytometry, phage on T2 + EW peptide; secondary only 310, unstained 93.

Test [3] addresses T3, Foxp3-7 peptide/HLA-A*02:01 complex on the cell surface (human).
T3 construct: also called Foxp3-7/HLA-A2 complex
Put plainly: flow cytometry, phage on peptide-loaded T2 cells. (In general: Flow cytometry measures light scatter and fluorescence of single cells or particles in a stream.)

The target of test [4] is T4, 017-mut7 peptide (…)/HLA-A*02:01 complex on T2 cells (human).
T4 construct: Alanine mutant at position 7
As to the kind of experiment: flow cytometry, phage on peptide-loaded T2 cells.

Test [5] has as its target T5, 017-mut2 peptide (…)/HLA-A*02:01 complex on T2 cells (human).
T5 construct: Alanine mutant at position 2, the anchor position; the peptide may load poorly onto HLA-A2; also called EXT017-mut2
Put plainly: flow cytometry, phage on peptide-loaded T2 cells.

Test [6] deals with T6, 017-mut3 peptide (…)/HLA-A*02:01 complex on T2 cells (human).
T6 construct: Alanine mutant at position 3
Put plainly: flow cytometry, phage on peptide-loaded T2 cells.

For test [7], the target named is T7, 017-mut5 peptide (…)/HLA-A*02:01 complex on T2 cells (human).
T7 construct: Alanine mutant at position 5
Put plainly: flow cytometry, phage on peptide-loaded T2 cells.

Test [8] concerns the target T8, 017-mut1 peptide (…)/HLA-A*02:01 complex on T2 cells (human).
T8 construct: Alanine mutant of Foxp3-7 at position 1, pulsed onto T2 cells; also called EXT017-mut1
Put plainly: flow cytometry, phage on peptide-loaded T2 cells.

Test [9] concerns the target T9, 017-mut9 peptide (…)/HLA-A*02:01 complex on T2 cells (human).
T9 construct: Alanine mutant at position 9
As to the kind of experiment: flow cytometry, phage on peptide-loaded T2 cells.

Test [10] addresses T10, 017-mut8 peptide (…)/HLA-A*02:01 complex on T2 cells (human).
T10 construct: Alanine mutant at position 8; also called TLI-A8
As to the kind of experiment: flow cytometry, phage on peptide-loaded T2 cells.

For test [11], the target named is T11, R3 (RHAMM-R3) peptide/HLA-A*02:01 complex on T2 cells (human).
T11 construct: Control target of the phage staining of T2 cells; also called T2 cells pulsed with R3 peptide; RHAMM 3 (R3)
As to the kind of experiment: flow cytometry, phage on T2 + R3 peptide (as the table names the samples); secondary only 109, unstained 80.9.

Test [12] concerns the target T1, HLA-A*02:01 on T2 cells alone (no …). Put plainly: flow cytometry, phage on T2 without peptide; secondary only 320, unstained 91.4.
For test [13] the target is unchanged. As to the kind of experiment: flow cytometry, phage on T2 without peptide.
The target in test [14] is T3, Foxp3-7 peptide/HLA-A*02:01 complex on …. As to the kind of experiment: flow cytometry, phage on T2 + Foxp3-7 peptide; secondary only 104, unstained 81.7.
For test [15] the target is unchanged. As to the kind of experiment: flow cytometry, phage on T2 + Foxp3-7 peptide; secondary only 318, unstained 95.8.
In test [16] the target is T11, R3 (RHAMM-R3) peptide/HLA-A*02:01 …. As to the kind of experiment: flow cytometry, phage on T2 + R3 peptide; secondary only 123, unstained 99.8.
Test [17] deals with T1, HLA-A*02:01 on T2 cells alone (no …). Put plainly: flow cytometry, phage on T2 without peptide; secondary only 121, unstained 106.
Test [18] has the same target. Put plainly: flow cytometry, phage on T2 without peptide; secondary only 100, unstained 99.5.
Test [19] addresses T3, Foxp3-7 peptide/HLA-A*02:01 complex on …. As to the kind of experiment: flow cytometry, phage on T2 + Foxp3-7 peptide; secondary only 116, unstained 93.8.
For test [20], the target named is T1, HLA-A*02:01 on T2 cells alone (no …). As to the kind of experiment: flow cytometry, phage on T2 cells.
Test [21] concerns the target T3, Foxp3-7 peptide/HLA-A*02:01 complex on …. As to the kind of experiment: flow cytometry, phage on T2 + Foxp3-7 peptide; secondary only 133, unstained 103.
In test [22] the target is T2, T2+EW. As to the kind of experiment: flow cytometry, phage on T2 + EW peptide; secondary only 113, unstained 94.7.

B1: EXT017-54 scFv phage clone (scFv)
scFv: QAVLTQPPSLSGGPRQRVTISCSGSTSNIGKNGVSWYQQLPGKAPKLLIYNDHLLSSGVSDRFSGSKSGTSASLAISGLQSDDEADYYCATWDDTLDLPLFGGGTKVTVLGSRGGGGSGGGGSGGGGSLEMAQMQLVQSGAEVEKPGASVKLSCKASGGTFSSYAISWVRQAPGQGLEWMGGIIPIFGTANYAQKFQGRVTITADESTSTAYMELSSLRSEDTAVYYCARPSYYSIKSAWDHWGQGTLVTVSSTSGQAGQHHHHHHGAYPYDVPDYAS
notes: full-length scFv with His+HA tags; also called EXT017-54 phage
As to B1, the MFI in test [1] amounted to 89.9; in test [3] it was 30400; in [4], 91.1; in test [5] it was 94.7; in test [6], 7780; in test [7] it was 91.2. Also, the MFI was 23500 in test [8], 3540 in test [9] and 5850 in test [10]. Moreover, the “Median:FITC-A” value was 364 with T2+EW [2]; 122 in test [11]; 343 in test [12]; 4370 in [14]; 732 in test [15]. Also, the binding result in test [13] is given as “no binding”.

B2: #55 (scFv)
scFv (VL-linker-VH-His/HA tag): QSALTQPASVSGSPGQSITISCTGPTSDFNDYLFVSWYQQHPGKAPKLILYDVTHRPSGVSGRFSGSKSASTASLTISGLQAEDEADYFCGSKTGRTTYVFGTGTKVTVLGSRGGGGSGGGGSGGGGSLEMAQVQLVQSGAEVKKPGASVKVSCKASGYTFDNFGISWVRQAPGQGLEWMGWINTYDGYTNYVEKLQGRVTMTTDTSTGTAYMELRGLRSDDTAVYYCARSVPHQISYGDLWGQGTLVTVSSTSGQAGQHHHHHHGAYPYDVPDYAS
notes: also called EXT017-55; EXT017-55 scFv phage clone
For the molecule B2, the “Median:FITC-A” value in the test with T2+EW [2] was 391; in [12] it was 389. Also, the binding result in test [13] was “no binding”.

B3: EXT017-9 scFv phage clone (scFv)
scFv: QSALTQPASASGSPGQSVTISCTGTSSDVGGYNYVSWYQQHPGKAPKLMIYEVSKRPSGVPDRFSGSKSGNTASLTVSGLQAEDEADYYCSSYAGSNNVVFGGGTKLTVLGSRGGGGSGGGGSGGGGSLEMAEVQLVQSGAEVKKPGASVKISCKASRYTFTNYYIHWVRQAPGQGLEWMGIINPSGGSTTYPQNFQGRLTMTRDTSTSTVYMELSSLRSEDTAMYYCARGWSGYDPGDFWGQGTLVTVSSTSGQAGQHHHHHHGAYPYDVPDYAS
notes: also called phage clone #9
On to B3, for which the “Median:FITC-A” value in [16] came out at 144; in test [17], 150; in test [18], 149; in test [19] it was 287; in test [21], 1730; with T2+EW [22], 151. Further, the binding result in test [20] is “no binding”.

B4: #34 (scFv)
scFv (VL-linker-VH-His/HA tag): QSALTQPPSASGSPGQSVTISCTGTSSDVGAYNYVSWYQHYPGKAPKLMIYEVSERPSGVPDRFSGSKSGNTASLTVSGLQAEDEADYFCSSYAGSNNFVFGTGTKVTVLGSRGGGGSGGGGSGGGGSLEMAEVQLVQSGAEVKKPGSSVKVSCKASGGTFSSYAISWVRQAPGQGLEWMGRIIPILGIANYAQKFQGRVTITADKSSSTAYMALSSLTSEDTAVYYCARGGDYVESWFDPWGQGTLVTVSSTSGQAGQHHHHHHGAYPYDVPDYAS
notes: also called EXT017-34; EXT017-34 scFv phage clone
With B4, the “Median:FITC-A” value was 386 with T2+EW [2], 361 in test [12] and 1050 in [15]. The binding result in test [13] was “no binding”.

B5: EXT017-21 scFv phage clone (scFv)
scFv: SYELTQPPSVSVAPGQTASMTCGGNNIGSKSVHWYQQKPSQAPVMVVHDDSERPSGIPERISGSKSGNTATLTISRVEAGDEADYYCQVWDSSSDHVIFGGGTKLTVLGSRGGGGSGGGGSGGGGSLEMAQVQLVQSGAEVKKPGASVKVSCKASGYTFTNYYIHWVRQAPGQGLEWMGIIRPSGGITNYAQKFQGRVSMTRDTSTSTVYMELSSLRSEDTAVYYCARSWMSDSYYDGWGQGTLVTVSSTSGQAGQHHHHHHGAYPYDVPDYAS
notes: also called phage clone #21
As to B5, the “Median:FITC-A” value in test [16] came out at 143; in test [17] it was 147; in test [18] it was 138; in test [19], 428; in test [11], 123; in test [21], 1550. In addition, the “Median:FITC-A” value in [14] came to 2220; in the test with T2+EW [22], 143. Further, in test [20], the binding result is “no binding”.

B6: #29 (scFv)
scFv (VL-linker-VH-His/HA tag): QSVLTQPPSVSAAPRQKVTISCSGSSSNIGNNYVSWYQQLPGTAPKLLIYDDNKRPSGIPDRFSGSKSGTSATLGITGLQTGDEADYYCGTWDSSLSAVVFGGGTKLTVLGSRGGGGSGGGGSGGGGSLEMAQVQLVQSGTEVKRAGASVKVSCKASGYTFTNYYMHWVRQAPGQGLEWMGIINPSIGSTNYAQKFQGRVTMTRDTSTSTVFMELSSLRSDDTAVYYCARSFGDSDGADSWGQGTLVTVSSTSGQAGQHHHHHHGAYPYDVPDYAS
notes: also called EXT017-29; EXT017-29 scFv phage clone
As to B6, the “Median:FITC-A” value amounted to 359 in the test with T2+EW [2], 369 in [12] and 1010 in test [15]. The binding result in [13] is on record as “no binding”.

B7: #25 (scFv)
scFv (VL-linker-VH-His/HA tag): QSVLTQPPSVSAAPGQKVTISCSGSSSNIGNNYVSWYQFLPGTAPKLLIYDNNQRPSGIPDRFSGFKSGTSATLDITGLQTGDEADYYCGTWDNSLSAAVFGRGTKLTVLGSRGGGGSGGGGSGGGGSLEMAQMQLVQSGTEVKRAGASVKVSCKASGYTFTNYYMHWVRQAPGQGLEWMGIINPSGGSTTYAQKFQGRVTMTRDTSTSTVYMELSDLGSEDTAVYYCARSWSKTEGSDRWGQGTLVTVSSTSGQAGQHHHHHHGAYPYDVPDYAS
notes: also called EXT017-25; EXT017-25 scFv phage clone
As for B7, the “Median:FITC-A” value in the test with T2+EW [2] came to 375; in test [12] it was 386; in test [15], 1030. Further, the binding result in test [13] was “no binding”.

B8: EXT017-11 scFv phage clone (scFv)
scFv: NFMLTQPHSVSESPGKTVTISCTRSSGSIASNYVQWYQQRPGSAPTTVIYEDNQRPSGVPDRFSGSIDSSSNSASLTISGLKTEDEADYYCQSYDTNNYGVIFGGGTKLTVLGSRGGGGSGGGGSGGGGSLEMAQMQLVQSGAEVKKPGASVKVSCKTSGYTFNNYYMHWVRQAPGQGLEWMGIINPSGGSTNYAQKFQGRVTMTRDTSTSTVYMELSSLRSEDTAVYYCARSFDKQDIDYWGQGTLVTVSSTSGQAGQHHHHHHGAYPYDVPDYAS
notes: also called phage clone #11
Regarding B8, the “Median:FITC-A” value was found to be 144 in test [16]; 143 in [17]; 142 in [18]; 454 in test [19]; 119 in test [11]; 1690 in test [21]. The “Median:FITC-A” value in [14] amounted to 2620; with T2+EW [22], 143. Moreover, the binding result in test [20] is “no binding”.
